{
  "source": "IntAct's records for PubMed 8848052",
  "parents": {"B1": {"name": "mRNA export factor GLE1 (Saccharomyces cerevisiae), Q12315 (parent)", "chain": "MRFVFDEVFNSDTDSPEFEETCSTTSSTSSQCPTPEPSPAIKLPSFTKVGTKKLVNESVVILDPALENALRDLNLQSKLIPINEPIVAASSIIVPHSTNMPLPRASHSSLLDNAKNSNATAPLLEAIEESFQRKMQNLVLANQKEIQSIRENKRRVEEQRKRKEEEERKRKEAEEKAKREQELLRQKKDEEERKRKEAEAKLAQQKQEEERKKIEEQNEKERQLKKEHEAKLLQQKDKLGKAVTNFDKISKMFWHYKDKIAQIKQDIVLPIKKADVNVRNLLSRHKRKINPKFGQLTNSNQQLFKIQNELTQLINDTKGDSLAYHWILNFIAKAVVHQAETEVRVKPESALPLGKLTLYLLVQFPELQELFMARLVKKCPFVIGFTCEIDTEKGRQNMGWKRNNENKWEDNTSYDERMGGILSLFAIITRLQLPQEFITTTSHPFPIALSWHILARICNTPLNLITNTHFVILGSWWDAAAVQFLQAYGNQASKLLILIGEELTSRMAEKKYVGAARLRILLEAWQNNNMESFPEMSP", "partner": "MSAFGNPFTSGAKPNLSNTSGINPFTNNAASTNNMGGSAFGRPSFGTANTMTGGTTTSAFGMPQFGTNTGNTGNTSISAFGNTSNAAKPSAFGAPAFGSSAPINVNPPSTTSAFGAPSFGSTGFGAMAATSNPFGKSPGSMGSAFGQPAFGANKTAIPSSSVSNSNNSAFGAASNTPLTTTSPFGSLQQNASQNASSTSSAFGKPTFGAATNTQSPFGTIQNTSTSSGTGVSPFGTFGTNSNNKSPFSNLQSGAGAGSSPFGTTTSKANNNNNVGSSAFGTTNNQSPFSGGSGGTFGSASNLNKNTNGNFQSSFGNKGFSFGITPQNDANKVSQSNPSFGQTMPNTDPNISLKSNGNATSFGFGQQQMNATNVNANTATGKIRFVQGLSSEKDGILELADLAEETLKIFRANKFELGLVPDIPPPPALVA"}},
  "data": [
    {"variants_of": "B1", "conditions": "with nup42_yeast NUP42, P49686", "values": [
      {"variant": "MRFVFDEVFNSDTDSPEFEETCSTTSSTSSQCPTPEPSPAIKLPSFTKVGTKKLVNESVVILDPALENALRDLNLQSKLIPINEPIVAASSIIVPHSTNMPLPRASHSSLLDNAKNSNATAPLLEAIEESFQRKMQNLVLANQKEIQSIRENKRRVEEQRKRKEEEERKRKEAEEKAKREQELLRQKKDEEERKRKEAEAKLAQQKQEEERKKIEEQNEKERQLKKEHEAKLLQQKDKLGKAVTNFDKISKMFWHYKDKIAQIKQDIVLPIKKADVNVRNLLSRHKRKINPKFGQLTNSNQQLFKIQNELTQLINDTKGDSLAYHWILNFIAKAVVHQAETEVRVKPESALPLGKATLYLLVQFPELQELFMARLVKKCPFVIGFTCEIDTEKGRQNMGWKRNNENKWEDNTSYDERMGGILSLFAIITRLQLPQEFITTTSHPFPIALSWHILARICNTPLNLITNTHFVILGSWWDAAAVQFLQAYGNQASKLLILIGEELTSRMAEKKYVGAARLRILLEAWQNNNMESFPEMSP", "note": "[L356A]", "effect of a mutation on the interaction": "decreasing interaction"}
    ]}
  ]
}
